According to patent publication US20150299305A1:

Experiments:
Experiment in all cases: SPR, antibody immobilized, monomeric FcγR injected, steady state, pH 7.4; SPR, monomeric FcγR
[1] = target: Human FcγRIIIa (CD16a) (human) (UniProt P08637)
[2] = target: Human FcγRI (CD64) (human) (UniProt P12314)
[3] = target: Human FcγRIIIb (CD16b) (human) (UniProt O75015)
Sequence of Human FcγRIIIb (CD16b) (human) (O75015 17-200 limits assumed): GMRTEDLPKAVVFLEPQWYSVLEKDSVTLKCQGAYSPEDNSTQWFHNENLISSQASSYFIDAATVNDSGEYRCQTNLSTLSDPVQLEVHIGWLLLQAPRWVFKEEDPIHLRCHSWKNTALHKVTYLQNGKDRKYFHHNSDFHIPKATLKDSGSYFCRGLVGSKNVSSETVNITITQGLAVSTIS

Sequence of Human FcγRI (CD64) (human) (P12314 16-288 limits assumed): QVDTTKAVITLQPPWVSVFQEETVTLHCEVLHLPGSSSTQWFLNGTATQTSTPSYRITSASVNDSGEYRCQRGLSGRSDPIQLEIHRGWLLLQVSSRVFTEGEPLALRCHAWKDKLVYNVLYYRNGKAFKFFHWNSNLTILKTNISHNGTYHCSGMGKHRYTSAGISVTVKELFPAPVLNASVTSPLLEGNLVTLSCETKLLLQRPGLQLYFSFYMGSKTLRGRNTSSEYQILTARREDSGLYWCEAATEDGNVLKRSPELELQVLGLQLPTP
Sequence of Human FcγRIIIa (CD16a) (human) (P08637 17-208 limits assumed): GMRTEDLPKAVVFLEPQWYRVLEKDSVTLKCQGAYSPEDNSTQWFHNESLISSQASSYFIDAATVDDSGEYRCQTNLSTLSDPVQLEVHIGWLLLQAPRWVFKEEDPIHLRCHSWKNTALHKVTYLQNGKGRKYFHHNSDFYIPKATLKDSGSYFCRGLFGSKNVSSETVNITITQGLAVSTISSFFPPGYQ

B1: eculizumab (antibody, human IgG2, kappa)
heavy: QVQLVQSGAEVKKPGASVKVSCKASGYIFSNYWIQWVRQAPGQGLEWMGEILPGSGSTEYTENFKDRVTMTRDTSTSTVYMELSSLRSEDTAVYYCARYFFGSSPNWYFDVWGQGTLVTVSSASTKGPSVFPLAPCSRSTSESTAALGCLVKDYFPEPVTVSWNSGALTSGVHTFPAVLQSSGLYSLSSVVTVPSSNFGTQTYTCNVDHKPSNTKVDKTVERKCCVECPPCPAPPVAGPSVFLFPPKPKDTLMISRTPEVTCVVVDVSQEDPEVQFNWYVDGVEVHNAKTKPREEQFNSTYRVVSVLTVLHQDWLNGKEYKCKVSNKGLPSSIEKTISKAKGQPREPQVYTLPPSQEEMTKNQVSLTCLVKGFYPSDIAVEWESNGQPENNYKTTPPVLDSDGSFFLYSRLTVDKSRWQEGNVFSCSVMHEALHNHYTQKSLSLSLGK
light: DIQMTQSPSSLSASVGDRVTITCGASENIYGALNWYQQKPGKAPKLLIYGATNLADGVPSRFSGSGSGTDFTLTISSLQPEDFATYYCQNVLNTPLTFGQGTKVEIKRTVAAPSVFIFPPSDEQLKSGTASVVCLLNNFYPREAKVQWKVDNALQSGNSQESVTEQDSKDSTYSLSSTLTLSKADYEKHKVYACEVTHQGLSSPVTKSFNRGEC
Kd [1]: 6.78 µM
Kd [2]: 3.78 µM
Kd [3]: 3.49 µM
